Data published in patent publication US7018627 (ICOS, dated 2006).

B7: human C-C chemokine receptor 4 (CCR4) (receptor)
chain: MNPTDIADTTLDESIYSNYYLYESIPKPCTKEGIKAFGELFLPPLYSLVFVFGLLGNSVVVLVLFKYKRLRSMTDVYLLNLAISDLLFVFSLPFWGYYAADQWVFGLGLCKMISWMYLVGFYSGIFFVMLMSIDRYLAIVHAVFSLRARTLTYGVITSLATWSVAVFASLPGFLFSTCYTERNHTYCKTKYSLNSTTWKVLSSLEINILGLVIPLGIMLFCYSMIIRTLQHCKNEKKNKAVKMIFAVVVLFLGFWTPYNIVLFLETLVELEVLQDCTFERYLDYAIQATETLAFVHCCLNPIIYFFLGEKFRKYILQLFKTCRGLFVLCQYCGLLQIYSADTPSSSYTQSTMDHDLHDAL
notes: Expressed on stably transfected murine pre-B L1.2 cells (L1.2/CCR4, L1.2/huCCR4); also called huCCR4; MDC receptor CCR4

What was measured:
[1] = target: B7; test: competition with 0.1 nM 125I-labeled human MDC on L1.2/huCCR4 cells; LARC at 100 nM
[2] = target: B7; test: displacement of 0.5 nM MDC-SEAP from CCR4-transfected L1.2 cells by unlabeled chemokine
Experimental: (§1) The MDC-SEAP was used as a probe to examine MDC binding to CCR4-transfected L1.2 cells. For displacement and saturation experiments, transfected L1.2 cells (approx. 3×10^5) were incubated for one hour at 16° C. in the presence of 0.5 nM MDC-SEAP in the presence or absence of various concentrations of unlabeled chemokines in 200 μl binding buffer (RPMI 1640 media containing 25 mM HEPES, pH 7.4, 1% BSA, and 0.02% sodium azide). Following incubation, the cells were washed four times in binding buffer and lysed in 50 μl of 10 mM Tris-HCl, pH 8.0, and 1% Triton X-100. Samples were heated at 65° C. for 15 minutes to inactivate cellular phosphatases, centrifuged, and stored at −20° C. until assayed.
(§2) Alkaline phosphatase activity in 10 μl of sample was determined by a chemiluminescence assay using the Great Escape Detection kit (Clontech, Palo Alto, Calif.) according to the manufacturer's instructions. […] Binding competition curves were fitted (TableCurve™) using a three-parameter logistic model described by the equation y=a/[1+(x/b)^c], where y is the amount of labelled ligand bound, a is the maximum amount of labelled ligand bound, x is the concentration of the competitive chemokine, b is the IC$50$, and c is a parameter that determines the slope of the curve at the IC$50$.

[3] = target: B7; test: cell-based or functional assay
[4] = target: B7; test: CCR4 binding assay on L1.2/CCR4 cells, essentially as in Example 25
MDC-SEAP fusion protein = target: T1, MDC-SEAP fusion protein (human, UniProt P05187 23-506); test: saturation binding of MDC-SEAP to CCR4-transfected L1.2 cells, Scatchard analysis
T1 construct: mature; Expressed from pcDNA3 in COS cells and used as filtered culture supernatant; also called synthetic MDC-SEAP
Experimental: as §1, §2

## chemokine LARC (from UniProt P78556 27-96) (ligand)
[1]
  cpm of labeled MDC bound in the presence of the competitor: 3800 cpm

B1: TARC (Thymus and Activation-Regulated Chemokine) (ligand)
chain: ARGTNVGRECCLEYFKGAIPLRKLKTWYQTSEDCSRDAIVFVTVQGRAICSDPNNKRVKNAVKYLQSLERS
notes: The whole entry is named here
[2]
  IC50: 2.1 nM

B2: murine Leu-MDC (ligand)
chain: LGPYGANVEDSICCQDYIRHPLPSRLVKEFFWTSKSCRKPGVVLITVKNRDICADPRQVWVKKLLHKLS
[3]
  chemotaxis of L1.2/huCCR4 cells: response relative to full-length murine MDC: ~20 % lower

B3: MDC (9-69) (ligand)
chain: DSVCCRDYVRYRLPLRVVKHFYWTSDSCPRPGVVLLTFRDKEICADPRVPWVKMILNKLSQ
notes: Chemically synthesized N-terminal deletion analog
[4]
  binding result: binds

B4: human mature Macrophage Derived Chemokine, MDC(1-69) (ligand)
chain: GPYGANMEDSVCCRDYVRYRLPLRVVKHFYWTSDSCPRPGVVLLTFRDKEICADPRVPWVKMILNKLSQ
notes: also called mature MDC; human mature MDC
[2]
  IC50: 0.65 nM
  fold higher affinity than TARC: > 3 fold

B5: MDC-eyfy (ligand)
chain: GPYGANMEDSVCCRDYVRYRLPLRVVKEYFYTSDSCPRPGVVLLTFRDKEICADPRVPWVKMILNKLSQ
[4]
  binding result: binds

B6: MDC-wvas (ligand)
chain: GPYGANMEDSVCCRDYVRYRLPLRVVKHFYWTSDSCPRPGVVLLTFRDKEICADPRVPASKMILNKLSQ
notes: Chemically synthesized analog
[4]
  fold less affinity than MDC: ~500 fold

## B7
MDC-SEAP fusion protein
  Kd: 0.18 nM
